This passage reports β(193-209): cleavage of β-casein results from US20180187179.

The labels stand for the following.
B1: camel chymosin variant 282 (Q280E+N100Q+N291Q) (protein)
chain: GKVAREPLTSYLDSQYFGKIYIGTPPQEFTVVFDTGSSDLWVPSIYCKSNVCKNHHRFDPRKSSTFRNLGKPLSIHYGTGSMEGFLGYDTVTVSNIVDPQQTVGLSTEQPGEVFTYSEFDGILGLAYPSLASEYSVPVFDNMMDRHLVARDLFSVYMDRNGQGSMLTLGAIDPSYYTGSLHWVPVTLQQYWQFTVDSVTINGVAVACVGGCQAILDTGTSVLFGPSSDILKIQMAIGATENRYGEFDVNCGNLRSMPTVVFEINGRDYPLSPSAYTSKDEGFCTSGFQGDQNSELWILGDVFIREYYSVFDRANNRVGLAKAI
B2: camel chymosin variant 286 (R242E+N100Q+N291Q) (protein)
chain: GKVAREPLTSYLDSQYFGKIYIGTPPQEFTVVFDTGSSDLWVPSIYCKSNVCKNHHRFDPRKSSTFRNLGKPLSIHYGTGSMEGFLGYDTVTVSNIVDPQQTVGLSTEQPGEVFTYSEFDGILGLAYPSLASEYSVPVFDNMMDRHLVARDLFSVYMDRNGQGSMLTLGAIDPSYYTGSLHWVPVTLQQYWQFTVDSVTINGVAVACVGGCQAILDTGTSVLFGPSSDILKIQMAIGATENEYGEFDVNCGNLRSMPTVVFEINGRDYPLSPSAYTSKDQGFCTSGFQGDQNSELWILGDVFIREYYSVFDRANNRVGLAKAI
B3: camel chymosin variant 285 (R254S+N100Q+N291Q) (protein)
chain: GKVAREPLTSYLDSQYFGKIYIGTPPQEFTVVFDTGSSDLWVPSIYCKSNVCKNHHRFDPRKSSTFRNLGKPLSIHYGTGSMEGFLGYDTVTVSNIVDPQQTVGLSTEQPGEVFTYSEFDGILGLAYPSLASEYSVPVFDNMMDRHLVARDLFSVYMDRNGQGSMLTLGAIDPSYYTGSLHWVPVTLQQYWQFTVDSVTINGVAVACVGGCQAILDTGTSVLFGPSSDILKIQMAIGATENRYGEFDVNCGNLSSMPTVVFEINGRDYPLSPSAYTSKDQGFCTSGFQGDQNSELWILGDVFIREYYSVFDRANNRVGLAKAI
B4: camel chymosin variant 283 (F282E+N100Q+N291Q) (protein)
chain: GKVAREPLTSYLDSQYFGKIYIGTPPQEFTVVFDTGSSDLWVPSIYCKSNVCKNHHRFDPRKSSTFRNLGKPLSIHYGTGSMEGFLGYDTVTVSNIVDPQQTVGLSTEQPGEVFTYSEFDGILGLAYPSLASEYSVPVFDNMMDRHLVARDLFSVYMDRNGQGSMLTLGAIDPSYYTGSLHWVPVTLQQYWQFTVDSVTINGVAVACVGGCQAILDTGTSVLFGPSSDILKIQMAIGATENRYGEFDVNCGNLRSMPTVVFEINGRDYPLSPSAYTSKDQGECTSGFQGDQNSELWILGDVFIREYYSVFDRANNRVGLAKAI

In the data set the target is T1, β-casein, P02666.
T1 chain: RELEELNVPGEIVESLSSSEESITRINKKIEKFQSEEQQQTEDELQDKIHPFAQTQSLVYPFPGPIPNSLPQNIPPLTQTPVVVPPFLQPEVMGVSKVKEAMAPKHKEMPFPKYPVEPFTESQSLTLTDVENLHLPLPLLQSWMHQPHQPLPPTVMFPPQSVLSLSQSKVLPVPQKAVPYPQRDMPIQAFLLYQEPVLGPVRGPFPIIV
The note with it: scale: % cleavage of non-glycosylated camel chymosin.
B1 returned a β(193-209): cleavage of β-casein at position 192/193 of 85. The figure for B2 is 89; for B3 it is 78; for B4 it is 79.
